Measured values from patent US20260184814A1, “BROADLY NE[…] INFLUENZA NEURAMINIDASE” (priority 2022, published 2026).

Tests used:
human FcγRIIIb (human) [1] = biological target: human FcγRIIIb (human) (UniProt O75015); assay: MSD [cont'd]
[2] = biological target: human FcγRIIIa (V158 allele) (human) (UniProt P08637); assay: MSD [cont'd]
[3] = biological target: human FcγRIIa (H131 allele) (human) (UniProt P12318); assay: MSD [cont'd]
[4] = biological target: human FcγRIIa (R131 allele) (human) (UniProt P12318); assay: MSD [cont'd]
human FcγRIIa (R131 allele) (human), sequence (P12318 34-218 H167R limits assumed): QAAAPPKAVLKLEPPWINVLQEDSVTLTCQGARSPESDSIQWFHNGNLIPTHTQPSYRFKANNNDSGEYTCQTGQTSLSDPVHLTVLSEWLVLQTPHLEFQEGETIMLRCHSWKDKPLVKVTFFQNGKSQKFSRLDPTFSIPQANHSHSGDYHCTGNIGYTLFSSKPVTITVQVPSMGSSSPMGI

human FcγRIIb (human) [5] = biological target: human FcγRIIb (human) (UniProt P31994); assay: MSD [cont'd]
human FcγRIIb (human), sequence (P31994 43-217 limits assumed): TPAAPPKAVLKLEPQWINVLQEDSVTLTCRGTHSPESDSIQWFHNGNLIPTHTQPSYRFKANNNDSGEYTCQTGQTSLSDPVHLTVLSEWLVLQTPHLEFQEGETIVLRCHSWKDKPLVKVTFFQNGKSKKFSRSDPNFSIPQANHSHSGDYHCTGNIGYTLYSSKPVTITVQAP

[6] = biological target: human FcγRIIIa (F158 allele) (human) (UniProt P08637); assay: MSD [cont'd]
human FcγRIIIa (F158 allele) (human), sequence (P08637 17-208 limits assumed): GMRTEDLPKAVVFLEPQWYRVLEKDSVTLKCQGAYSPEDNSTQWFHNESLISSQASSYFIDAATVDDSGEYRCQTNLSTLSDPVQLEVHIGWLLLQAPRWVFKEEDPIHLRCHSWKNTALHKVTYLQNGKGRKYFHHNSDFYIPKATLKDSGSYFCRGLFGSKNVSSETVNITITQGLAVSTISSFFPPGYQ

[7] = biological target: human FcγRIIIa (V158 allele) (human) (UniProt P08637)
[8] = biological target: human FcγRIIIa (F158 allele) (human) (UniProt P08637)
human FcRn (human) [9] = biological target: human FcRn (human) (UniProt P55899); assay: MSD [cont'd]
human FcRn (human), sequence (P55899 24-297 limits assumed, chain 1 of 2): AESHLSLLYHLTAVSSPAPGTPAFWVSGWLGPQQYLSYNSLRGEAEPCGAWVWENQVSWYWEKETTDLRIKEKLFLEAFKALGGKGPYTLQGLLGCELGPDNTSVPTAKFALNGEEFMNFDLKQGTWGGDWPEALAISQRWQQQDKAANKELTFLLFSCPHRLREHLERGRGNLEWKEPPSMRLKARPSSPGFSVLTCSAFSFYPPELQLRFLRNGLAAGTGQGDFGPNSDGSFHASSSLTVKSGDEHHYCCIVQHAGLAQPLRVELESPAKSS
human FcRn (human), sequence (chain, as listed by the source limits assumed, chain 2 of 2): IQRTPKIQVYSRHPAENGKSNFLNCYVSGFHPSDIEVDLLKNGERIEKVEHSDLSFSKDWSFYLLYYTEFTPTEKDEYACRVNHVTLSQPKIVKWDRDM

human FcγRIIIb (human) [10] = biological target: human FcγRIIIb (human) (UniProt O75015); assay: MSD electrochemiluminescence binding assay; column IIIB
[11] = biological target: human FcγRIIIa (F158 allele) (human) (UniProt P08637); assay: MSD electrochemiluminescence binding assay; column IIIA_F
[12] = biological target: human FcγRIIa (R131 allele) (human) (UniProt P12318); assay: MSD electrochemiluminescence binding assay; column IIA_R
[13] = biological target: human FcγRIIIa (V158 allele) (human) (UniProt P08637); assay: MSD electrochemiluminescence binding assay; column IIIA_V
human FcγRIIb (human) [14] = biological target: human FcγRIIb (human) (UniProt P31994); assay: MSD electrochemiluminescence binding assay; column IIB
human FcRn (human) [15] = biological target: human FcRn (human) (UniProt P55899); assay: MSD electrochemiluminescence binding assay; column FcRn
[16] = biological target: human FcγRIIa (H131 allele) (human) (UniProt P12318); assay: MSD electrochemiluminescence binding assay; column IIA_H
human FcRn (human) [17] = biological target: human FcRn (human) (UniProt P55899); assay: MSD, pH 6 [cont'd]
[18] = biological target: human FcγRIIa (H131 allele) (human) (UniProt P12318); assay: MSD
[19] = biological target: human FcγRIIa (R131 allele) (human) (UniProt P12318); assay: MSD
human FcγRIIb (human) [20] = biological target: human FcγRIIb (human) (UniProt P31994); assay: MSD
human C1q (human) = human C1q (human) (UniProt P02745); assay: MSD [cont'd]
human C1q (human), sequence (P02745 23-245 limits assumed, chain 1 of 3): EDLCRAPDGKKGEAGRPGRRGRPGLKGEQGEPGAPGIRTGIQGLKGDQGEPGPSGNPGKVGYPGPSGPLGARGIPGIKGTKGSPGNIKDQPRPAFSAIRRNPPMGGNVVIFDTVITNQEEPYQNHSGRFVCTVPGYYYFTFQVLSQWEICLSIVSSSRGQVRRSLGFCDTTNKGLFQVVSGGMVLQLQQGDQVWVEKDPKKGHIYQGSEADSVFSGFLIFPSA
human C1q (human), sequence (P02746 28-253 limits assumed, chain 2 of 3, further chain): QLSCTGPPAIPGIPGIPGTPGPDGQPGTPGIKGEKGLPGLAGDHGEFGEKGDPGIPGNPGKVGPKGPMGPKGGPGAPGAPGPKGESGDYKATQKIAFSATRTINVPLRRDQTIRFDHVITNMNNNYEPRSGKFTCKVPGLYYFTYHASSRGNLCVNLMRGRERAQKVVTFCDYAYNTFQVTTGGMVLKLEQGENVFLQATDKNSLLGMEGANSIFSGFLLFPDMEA
human C1q (human), sequence (P02747 29-245 limits assumed, chain 3 of 3, further chain): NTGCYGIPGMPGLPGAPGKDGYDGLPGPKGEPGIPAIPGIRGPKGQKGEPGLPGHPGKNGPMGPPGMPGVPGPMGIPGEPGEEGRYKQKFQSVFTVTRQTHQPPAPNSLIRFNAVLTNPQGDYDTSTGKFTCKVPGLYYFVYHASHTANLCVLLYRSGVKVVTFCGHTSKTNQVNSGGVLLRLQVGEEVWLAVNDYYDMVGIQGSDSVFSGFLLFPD

human FcγRIIIb (human) [21] = biological target: human FcγRIIIb (human) (UniProt O75015); assay: MSD
[22] = biological target: human FcγRIIIa (V158 allele) (human) (UniProt P08637); assay: MSD
[23] = biological target: human FcγRIIIa (F158 allele) (human) (UniProt P08637); assay: MSD

human FcγRIIIb (human), sequence (O75015 17-200 limits assumed): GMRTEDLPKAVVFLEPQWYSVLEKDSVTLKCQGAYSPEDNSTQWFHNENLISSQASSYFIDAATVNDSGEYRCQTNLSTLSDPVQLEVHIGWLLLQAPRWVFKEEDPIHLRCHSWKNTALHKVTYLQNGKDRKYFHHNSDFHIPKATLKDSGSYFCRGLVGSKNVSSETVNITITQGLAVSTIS
human FcγRIIa (H131 allele) (human), sequence (P12318 34-218 limits assumed): as the sequence (P12318 34-218 H167R limits assumed) above, with R134H counted along it
human FcγRIIIa (V158 allele) (human), sequence (P08637 17-208 F176V limits assumed): as the sequence (P08637 17-208 limits assumed) above, with F160V counted along it

Row | Substance | fold-change in binding vs wild-type IgG1 (human FcγRIIIb (human) [10]) | fold-change in binding vs wild-type IgG1 [11] | fold-change in binding vs wild-type IgG1 [12] | fold-change in binding vs wild-type IgG1 [13] | fold-change in binding vs wild-type IgG1 (human FcγRIIb (human) [14]) | fold-change in binding vs wild-type IgG1 (human FcRn (human) [15]) | fold-change in binding vs wild-type IgG1 [16] | fold-change to WT Fc (human FcRn (human) [17]) [fold] | fold-change to WT Fc [18] [fold] | fold-change to WT Fc [19] [fold] | fold-change to WT Fc (human FcγRIIb (human) [20]) [fold] | fold-change to WT Fc (human C1q (human)) [fold] | fold-change to WT Fc [2] [fold] | fold-change to WT Fc [6] [fold] | also measured
1 | A330L_I332E-afuc (antibody) | – | – | – | – | – | – | – | – | – | – | – | – | – | – | fold to wt-fucose (human FcγRIIIb (human) [1]): 37.4 fold; fold to wt-fucose [2]: 37.8 fold; fold to wt-fucose [3]: 0.42 fold; fold to wt-fucose [4]: 0.53 fold; fold to wt-fucose (human FcγRIIb (human) [5]): 0.61 fold; fold to wt-fucose [6]: 191 fold
2 | G236A_P230A_Q295E-afuc (antibody) | – | – | – | – | – | – | – | – | – | – | – | – | – | – | FcγR reporter signaling, fold to wt-fucose [cont'd] [7]: 5.54 fold; FcγR reporter signaling, fold to wt-fucose [cont'd] [8]: 10.9 fold; fold to wt-fucose (human FcγRIIIb (human) [1]): 1.8 fold; fold to wt-fucose [2]: 10.8 fold; fold to wt-fucose [3]: 8.94 fold; fold to wt-fucose [4]: 6.04 fold; fold to wt-fucose (human FcRn (human) [9]): 1.02 fold; fold to wt-fucose (human FcγRIIb (human) [5]): 0.67 fold; fold to wt-fucose [6]: 26.7 fold
3 | L234D_G236D_K326E (antibody) | 0.6 | 0.35 | 0.3 | 0.05 | 0.28 | 0.83 | 0.14 | – | – | – | – | – | – | – | –
4 | R292P (antibody) | – | – | – | – | – | – | – | 0.898 | 0.577 | 0.454 | 0.541 | 0.549 | 0.917 | 0.79 | fold-change vs wt [3]: 0.58 fold; fold-change vs wt [4]: 0.45 fold; fold-change vs wt (human FcγRIIb (human) [5]): 0.54 fold
5 | G236A_R292P_Y300L-afuc (antibody) | – | – | – | – | – | – | – | – | – | – | – | – | – | – | fold-change (reference not given) (human FcγRIIIb (human) [21]): 1.8 fold; fold-change (reference not given) [22]: 9.1 fold; fold-change (reference not given) [18]: 11.2 fold; fold-change (reference not given) [19]: 2.2 fold; fold-change (reference not given) [23]: 19.7 fold
6 | L234D_V264R_K326E (antibody) | 0.6 | 0.27 | 0.25 | 0.05 | 0.5 | 0.83 | 0.14 | – | – | – | – | – | – | – | –
7 | P245A_Q295E_S298N (antibody) | 0.89 | 0.34 | 0.3 | 0.1 | 0.31 | 0.85 | 0.28 | – | – | – | – | – | – | – | –
8 | L328V_Q295E_S298N (antibody) | 0.79 | 0.28 | 0.33 | 0.08 | 0.32 | 1.02 | 0.26 | – | – | – | – | – | – | – | –
9 | G236A_R292P-afuc (antibody) | – | – | – | – | – | – | – | – | – | – | – | – | – | – | FcγR reporter signaling, fold to wt-fucose [cont'd] [7]: 2.18 fold; FcγR reporter signaling, fold to wt-fucose [cont'd] [8]: 3.34 fold; fold to wt-fucose (human FcγRIIIb (human) [1]): 1.15 fold; fold to wt-fucose [2]: 3.37 fold; fold to wt-fucose [3]: 3.05 fold; fold to wt-fucose [4]: 1.04 fold; fold to wt-fucose (human FcRn (human) [9]): 0.73 fold; fold to wt-fucose (human FcγRIIb (human) [5]): 0.51 fold; fold to wt-fucose [6]: 5.83 fold
10 | C220P (antibody) | – | – | – | – | – | – | – | 0.991 | 1.17 | 1.04 | 1.21 | 0.761 | 1.33 | 0.99 | –
11 | G446E (antibody) | – | – | – | – | – | – | – | 1.06 | 1.11 | 1.05 | 1.17 | 0.84 | 1.42 | 1.1 | –
12 | G236L (antibody) | – | – | – | – | – | – | – | 0.949 | 0.435 | 1.42 | 0.395 | 1.48 | 0.083 | 0.345 | –
13 | G236A_R292P_G446E (antibody) | – | – | – | – | – | – | – | 0.851 | 4.54 | 0.986 | 0.512 | 0.099 | 0.415 | 0.552 | –
